According to patent US20250304644A1, “PEPTIDES TRIPLE AGONISTS OF GIP, GLP-1 AND GLP-2” (BAINAN BIOTECH APS, priority 2021, published 2025):
Blank lines part the entries; values can stand above or below the binder they belong to. *1 amine or outer side, *2 acyl side, *3 side chain or, on linkers, in order; H or OH if unused. Where no end group is shown, it is not given here. Side-chain parts run from the residue outwards. The star is where a group is joined. C18 diacid = O=C(O)CCCCCCCCCCCCCCCCC(=O)*; γGlu = O=C(O)[C@H](CCC(=O)[*:2])N[*:1]; AEEA = NCCOCCOCC(=O)O

What was measured:
Assay in all cases: cell-based or functional assay
[1] = biological target: T1, Human N-terminally SNAP-tagged GIPR (human, UniProt P48546 22-466, SNAP tag labeled with Tag-Lite SNAP-Lumi4-Tb)
T1 sequence (looked up): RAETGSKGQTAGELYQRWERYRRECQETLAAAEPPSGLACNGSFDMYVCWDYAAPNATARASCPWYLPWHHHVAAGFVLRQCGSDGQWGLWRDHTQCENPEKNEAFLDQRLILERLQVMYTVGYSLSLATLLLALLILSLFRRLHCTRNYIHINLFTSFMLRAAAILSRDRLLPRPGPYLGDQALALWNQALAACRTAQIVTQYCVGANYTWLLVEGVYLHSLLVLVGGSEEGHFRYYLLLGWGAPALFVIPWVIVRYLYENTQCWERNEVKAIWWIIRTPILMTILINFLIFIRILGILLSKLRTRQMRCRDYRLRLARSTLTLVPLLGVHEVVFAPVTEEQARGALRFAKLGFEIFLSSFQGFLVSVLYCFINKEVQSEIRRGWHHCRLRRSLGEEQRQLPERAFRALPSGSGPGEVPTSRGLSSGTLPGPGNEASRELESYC

[2] = biological target: human GLP-1R (glucagon-like peptide-1 receptor) (human, UniProt P43220 24-463)
[3] = biological target: T2, human GLP-2R (glucagon-like peptide-2 receptor) (human, UniProt O95838 1-553)
T2 sequence (looked up): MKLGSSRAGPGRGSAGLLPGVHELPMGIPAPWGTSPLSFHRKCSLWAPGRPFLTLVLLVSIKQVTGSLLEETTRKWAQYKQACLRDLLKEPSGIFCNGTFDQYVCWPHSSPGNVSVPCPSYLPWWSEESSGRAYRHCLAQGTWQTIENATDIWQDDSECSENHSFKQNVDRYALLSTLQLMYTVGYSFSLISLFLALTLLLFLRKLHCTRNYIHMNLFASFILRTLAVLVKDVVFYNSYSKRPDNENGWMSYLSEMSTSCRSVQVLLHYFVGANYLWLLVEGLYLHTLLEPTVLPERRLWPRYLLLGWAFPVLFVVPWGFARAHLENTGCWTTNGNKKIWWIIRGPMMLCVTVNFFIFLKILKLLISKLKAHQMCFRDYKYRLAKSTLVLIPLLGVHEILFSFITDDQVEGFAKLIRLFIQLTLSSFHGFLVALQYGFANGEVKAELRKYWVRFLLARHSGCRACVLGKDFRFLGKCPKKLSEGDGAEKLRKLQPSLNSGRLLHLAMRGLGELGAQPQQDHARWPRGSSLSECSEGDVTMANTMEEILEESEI

[4] = biological target: T3, human GIPR (glucose-dependent insulinotropic polypeptide receptor) (human, UniProt P48546 22-466)
T3 sequence (looked up): T1 sequence (looked up)

Absolute hGIPR internalization (AUC) [1]: 16.4 AUC
Relative hGIPR internalization (%) [1]: 44%
EC50 (nM) GLP-1R [2]: 0.04 nM
Efficacy GLP-1R [2]: 103
logEC50 GLP-1R [2]: 10.4
EC50 (nM) GLP-2R [3]: 5.6 nM
Efficacy GLP-2R [3]: 112
logEC50 GLP-2R [3]: 8.3
Binder: HADGTFTSDYSTILDKLAARDFINWLIQTKGKKNDWKHNITQK([AEEA-AEEA-γGlu-C18 diacid])-OH [Compound 26]

EC50 (nM) GIPR [4]: 0.398 nM
Efficacy GIPR [4]: 96
pEC50 GIPR [4]: 9.4
Absolute hGIPR internalization (AUC) [1]: 15 AUC
Relative hGIPR internalization (%) [1]: 41%
EC50 (nM) GLP-1R [2]: 0.05 nM
Efficacy GLP-1R [2]: 113
logEC50 GLP-1R [2]: 10.3
Binder: HADGTFTSDYSTILDKLAARDFINWLIQTKGKK([AEEA-AEEA-γGlu-C18 diacid])NDWKHNITQ-OH [Compound 24]

Efficacy GIPR [4]: 82
Absolute hGIPR internalization (AUC) [1]: 2.1 AUC
EC50 (nM) GLP-1R [2]: 0.06 nM
Efficacy GLP-1R [2]: 112
logEC50 GLP-1R [2]: 10.2
B1: Compound 18 (peptide)
peptide: HADGTFTSDYSTILDNLAAK([AEEA-AEEA-γGlu-C18 diacid])DFINWLIQTKGKK-OH
modifications: N-terminus assumed
SMILES: CC[C@H](C)[C@H](NC(=O)[C@H](Cc1ccccc1)NC(=O)[C@H](CC(=O)O)NC(=O)[C@H](CCCCNC(=O)COCCOCCNC(=O)COCCOCCNC(=O)CC[C@H](NC(=O)CCCCCCCCCCCCCCCCC(=O)O)C(=O)O)NC(=O)[C@H](C)NC(=O)[C@H](C)NC(=O)[C@H](CC(C)C)NC(=O)[C@H](CC(N)=O)NC(=O)[C@H](CC(=O)O)NC(=O)[C@H](CC(C)C)NC(=O)[C@@H](NC(=O)[C@@H](NC(=O)[C@H](CO)NC(=O)[C@H](Cc1ccc(O)cc1)NC(=O)[C@H](CC(=O)O)NC(=O)[C@H](CO)NC(=O)[C@@H](NC(=O)[C@H](Cc1ccccc1)NC(=O)[C@@H](NC(=O)CNC(=O)[C@H](CC(=O)O)NC(=O)[C@H](C)NC(=O)[C@@H](N)Cc1c[nH]cn1)[C@@H](C)O)[C@@H](C)O)[C@@H](C)O)[C@@H](C)CC)C(=O)N[C@@H](CC(N)=O)C(=O)N[C@@H](Cc1c[nH]c2ccccc12)C(=O)N[C@@H](CC(C)C)C(=O)N[C@H](C(=O)N[C@@H](CCC(N)=O)C(=O)N[C@H](C(=O)N[C@@H](CCCCN)C(=O)NCC(=O)N[C@@H](CCCCN)C(=O)N[C@@H](CCCCN)C(=O)O)[C@@H](C)O)[C@@H](C)CC

Efficacy GIPR [4]: 92
pEC50 GIPR [4]: 9.2
Absolute hGIPR internalization (AUC) [1]: 8.9 AUC
Relative hGIPR internalization (%) [1]: 24%
EC50 (nM) GLP-1R [2]: 0.06 nM
Efficacy GLP-1R [2]: 106
logEC50 GLP-1R [2]: 10.2
EC50 (nM) GLP-2R [3]: 31.6 nM
Efficacy GLP-2R [3]: 94
logEC50 GLP-2R [3]: 7.5
B2: Compound 19 (peptide)
peptide: HADGTFTSDYSTILDNLAARDFINWLIQTKGKK([γGlu-C18 diacid])-OH
modifications: N-terminus assumed
SMILES: CC[C@H](C)[C@H](NC(=O)[C@H](Cc1ccccc1)NC(=O)[C@H](CC(=O)O)NC(=O)[C@H](CCCNC(=N)N)NC(=O)[C@H](C)NC(=O)[C@H](C)NC(=O)[C@H](CC(C)C)NC(=O)[C@H](CC(N)=O)NC(=O)[C@H](CC(=O)O)NC(=O)[C@H](CC(C)C)NC(=O)[C@@H](NC(=O)[C@@H](NC(=O)[C@H](CO)NC(=O)[C@H](Cc1ccc(O)cc1)NC(=O)[C@H](CC(=O)O)NC(=O)[C@H](CO)NC(=O)[C@@H](NC(=O)[C@H](Cc1ccccc1)NC(=O)[C@@H](NC(=O)CNC(=O)[C@H](CC(=O)O)NC(=O)[C@H](C)NC(=O)[C@@H](N)Cc1c[nH]cn1)[C@@H](C)O)[C@@H](C)O)[C@@H](C)O)[C@@H](C)CC)C(=O)N[C@@H](CC(N)=O)C(=O)N[C@@H](Cc1c[nH]c2ccccc12)C(=O)N[C@@H](CC(C)C)C(=O)N[C@H](C(=O)N[C@@H](CCC(N)=O)C(=O)N[C@H](C(=O)N[C@@H](CCCCN)C(=O)NCC(=O)N[C@@H](CCCCN)C(=O)N[C@@H](CCCCNC(=O)CC[C@H](NC(=O)CCCCCCCCCCCCCCCCC(=O)O)C(=O)O)C(=O)O)[C@@H](C)O)[C@@H](C)CC
